Measured values published in patent US12427163B2, “Anti-VTCN1 antibodies and antibody drug conjugates” (Bluefin BioMedicine, Inc., priority 2017, dated 2025).
Substitutions are numbered along the chain they refer to.

Assays:
human VTCN1 protein = target: T1, human VTCN1 protein (Homo sapiens, UniProt Q7Z7D3); assay: Affinity to recombinant VTCN1-his by OCTET Red (Protein A biosensors); type: binding; conditions: for Kdis (human) / Kon (human): Table 5; for K(off) / k(on): Table 9; for Human K(off) / Human k(on): Table 12
T1 construct: His
T1 sequence (Q7Z7D3 25-282): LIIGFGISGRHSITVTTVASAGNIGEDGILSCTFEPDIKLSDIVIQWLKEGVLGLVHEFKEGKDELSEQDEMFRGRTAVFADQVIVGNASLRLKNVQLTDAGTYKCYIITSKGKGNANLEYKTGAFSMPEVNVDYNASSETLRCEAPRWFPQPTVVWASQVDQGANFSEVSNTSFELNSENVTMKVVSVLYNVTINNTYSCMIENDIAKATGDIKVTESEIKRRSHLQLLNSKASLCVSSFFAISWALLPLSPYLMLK
Procedure: (§1) The affinity of antibodies to recombinant VTCN1 was determined on an OCTET™ Red (Pall, ForteBio) instrument. After loading reagents into a 96-well plate, the OCTET™ Red with Protein A-conjugated biosensors was programmed as follows: 30 seconds for baseline #1; 45 seconds to immobilize the antibody; 30 seconds for baseline #2; 300 seconds for association of antibody to recombinant VTCN1-his; and 300 seconds for dissociation of recombinant VTCN1-his from the antibody. Table 5 lists the affinity measured for selected antibodies.

KLN205 tumors = assay: KLN205 syngeneic mouse lung squamous tumor model in DBA2 mice; type: in vivo
Procedure: For the tumor study. 6-8 week-old female DBA2 mice were implanted subcutaneously in the right flank with 2.5×10^5 mouse lung squamous carcinoma KLN205 cells in 50% matrigel on day 0. Mice were treated with PBS as a vehicle control, a mouse IgG isotype control (10 mg/kg), or anti-VTCN1 6D9 antibody (10 mg/kg) on days 3, 6, 10, 13, 15, 17, 20, and 22 following tumor implantation by intraperitoneal (i.p.) injection. Tumors were measured using an electronic caliper twice a week and tumor volume was calculated using the formula 0.52*length*width*width. Mouse body weight was also measured and recorded.
6-8 week-old female DBA2 mice were implanted subcutaneously in the right flank with 2.5×10^5 mouse lung squamous carcinoma cell KLN205 cells in 50% matrigel on day 0. Tumors were measured on day 7 and mice are randomized to 7 treatment groups. The average size was 50 mm^3. The treatment groups were: PBS vehicle control, mIgG2a isotype control. 6D9, anti-mouse PD1 antibody RMP1-14, 6D9+RMP1-14, anti-mouse CTLA-4 antibody 9D9, and 6D9+9D9. The mice were treated on days 8, 11, 13, 15, 18, 20, 22, and 25. All antibodies were 10 mg/kg by i.p.
To test the activity of the 6D9 and 6D9-mIgG1 antibodies, 6-8 weeks old female DBA2 mice were implanted subcutaneously in the right flank with 0.2 million KLN205 cells in PBS on day 0. Mice were randomized on day 9 into 3 treatment groups, mIgG1 control. 6D9-mIgG1, 6D9-mIgG2a. Mice were treated on days 9, 11, 15, 18, and 22 by i.p. with 200 μg antibodies (10 mg/kg). […] However.

[1] = system: cynomolgus monkey VTCN1 protein; assay: Affinity by OCTET, cynomolgus monkey VTCN1; type: binding; conditions: Table 12
Procedure: as §1, with “antibody.” for “antibody. Table 5 lists the affinity measured for selected antibodies.”

mouse VTCN1 protein = target: T2, mouse VTCN1 protein (Mus musculus, UniProt Q7TSP5); assay: Affinity by OCTET, mouse VTCN1; type: binding; conditions: Table 12
T2 construct: His
T2 sequence (Q7TSP5 25-257): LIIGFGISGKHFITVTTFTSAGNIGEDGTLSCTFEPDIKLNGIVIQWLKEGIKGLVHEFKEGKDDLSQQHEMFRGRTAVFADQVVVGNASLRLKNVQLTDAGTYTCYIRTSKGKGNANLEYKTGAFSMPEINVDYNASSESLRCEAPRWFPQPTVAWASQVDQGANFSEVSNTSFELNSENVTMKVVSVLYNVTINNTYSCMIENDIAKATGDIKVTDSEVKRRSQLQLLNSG
Procedure: as §1

B1: 10D1: mouse anti-human VTCN1 antibody; VH SEQ ID NO: 57, VL SEQ ID NO: 61 (antibody, V domains shown)
VH: QVQLQESGPELVKPGASVKLSCKASGYIFTDYTIHWLKQSPGQGLEWIGWIYPGSGHTHYNDKFKGKATMTADKSSTTAYMQLSSLTSEDSAVFFCARGGESITTVFPLAYWGQGTLVTVSA
VL: DIVMSQSPSSLAVSVGEKVTMSCKSSQSLLYSSDQKNYLAWYQQKPGQSPKLLIYWASTWESGVPDRFIGSGSGTDFTLTVSSVKAEDLAVYYCHQYYSYPPTFGAGTKLEIK
Kdis (human) (human VTCN1 protein): 4.04 × 10^−3 | Kon (human) (human VTCN1 protein): 9.83 × 10^5

B2: hu6D9_57A3: humanized 6D9 antibody; VH SEQ ID NO: 220, VL SEQ ID NO: 224 (antibody, V domains shown)
VH: QVQLVESGGGVVQPGRSLRLSCAVSGFSLTSYGVQWVRQAPGKGLEWLGVIWSSGSTDYNAAFLSRLTISKDNSKNTVYFQMNSLRAEDTAVYYCARDVTTIVEGFAHWGQGTLVTVSS
VL: DIQMTQSPSSLSASVGDRVTITCKASEKVGTYVSWYQQKPGKAPKLLIYGASNRYTGVPSRFSGSGSGTDFTLTISSLQPEDFATYYCGQTYSYPFTFGQGTKLEIK
K(off) (human VTCN1 protein): 2.27E−03 | k(on) (human VTCN1 protein): 8.21E+04

B3: hu6D9_57A4: humanized 6D9 antibody; VH SEQ ID NO: 228, VL SEQ ID NO: 224 (antibody, V domains shown)
VH: B2 VH with G9P, G49A, N76S
VL: B2 VL
K(off) (human VTCN1 protein): 2.26E−03 | k(on) (human VTCN1 protein): 6.21E+04

B4: hu6D9_66B1: humanized 6D9 antibody; VH SEQ ID NO: 236, VL SEQ ID NO: 224 (antibody, V domains shown)
VH: B2 VH with S28T, L29F, T30S
VL: B2 VL
K(off) (human VTCN1 protein): 3.25E−03 | k(on) (human VTCN1 protein): 1.20E+05

B5: hu6D9_57A5: humanized 6D9 antibody; VH SEQ ID NO: 232, VL SEQ ID NO: 224 (antibody, V domains shown)
VH: B2 VH with G49A
VL: B2 VL
K(off) (human VTCN1 protein): 2.89E−03 | k(on) (human VTCN1 protein): 8.14E+04

B6: 6D9-mIgG1: 6D9 antibody converted from a mouse IgG2a to a mouse IgG1 (antibody, V domains shown)
VH: QIQLQQSGPGLVQPSQSLSITCTVSGFSLTSYGVQWIRQSPGKGLEWLGVIWSSGSTDYNAAFLSRLSFSKDNSKSQVFFQMNSLQADDSAIYYCARDVTTIVEGFAHWGQGTLVTVSA
VL: NIVMTQSPKSMSMSVGERVTLSCKASEKVGTYVSWYQQKPEQSPKLLIYGASNRYTGVPDRFTGSGSATDFTLTISSVQVEDLADYHCGQTYSYPFTFGSGTKLEIK
mouse survival / time to tumor end point 1500 mm^3 (KLN205 tumors; Example 15): prolonged mouse survival | KLN205 primary tumor growth, isotype comparison (KLN205 tumors; Example 15, 200 μg (10 mg/kg) i.p. from day 9): inhibit primary tumor growth

B7: 7F10: mouse anti-human VTCN1 antibody; VH SEQ ID NO: 137, VL SEQ ID NO: 141 (antibody, V domains shown)
VH: QVQLQQSGPGLVQPSQSLSITCTVSGFSLTSYGIHWVRQSPGKGLEWLGVIWSSGSTDYNAAFISRLSISKDNSKSQVFFKMNSLQSDDTAIHYCARDITTIAEGFAYWGQGTLVTVSA
VL: B6 VL with K28N, V80A, T91S
Kdis (human) (human VTCN1 protein): 5.94 × 10^−3 | Kon (human) (human VTCN1 protein): 1.15 × 10^6

B8: 3G10: mouse anti-human VTCN1 antibody; VH SEQ ID NO: 17, VL SEQ ID NO: 21 (antibody, V domains shown)
VH: B7 VH with V2I, Q5K, Q6E, I34V, S54G, S56Y, A61S, S87A, H93Y, A103V
VL: B6 VL with N1I, V19I, S22N, K28N, R61H, V80A
Kdis (human) (human VTCN1 protein): 1.26 × 10^−2 | Kon (human) (human VTCN1 protein): 1.07 × 10^6

B9: 5A12: mouse anti-human VTCN1 antibody; VH SEQ ID NO: 105, VL SEQ ID NO: 109 (antibody, V domains shown)
VH: B7 VH with I34V, H35Q, S70N, S87P, H93Y, A103V
VL: B6 VL with N1I, K28N, V80A, T91S
Kdis (human) (human VTCN1 protein): 1.64 × 10^−3 | Kon (human) (human VTCN1 protein): 3.93 × 10^5

B10: 6E2: mouse anti-human VTCN1 antibody; VH SEQ ID NO: 33, VL SEQ ID NO: 37 (antibody, V domains shown)
VH: B6 VH with Q6E, I37V, S54G, L64I, F69I, Q81K, S90T, V99I, T100S, A119S
VL: B6 VL with V80A, T91S, S93R
Kdis (human) (human VTCN1 protein): 7.46 × 10^−3 | Kon (human) (human VTCN1 protein): 9.41 × 10^5

B11: 13H9_44D2: fully human VTCN1 antibody; VH SEQ ID NO: 272, VL SEQ ID NO: 276 (antibody, V domains shown)
VH: QVQLQESGPGLVKPSETLSLTCTVSGGSISSYYWSWIRQPPGKGLEWIGYIYYSGSTNNNPSLKSRVTISVDTSKNQFSLKLISVTAADTAVYYCARVYNNYDWGFDYWGQGTLVTVSS
VL: EIVMTQSPATLSVSPGERATLSCRASQSVSSNLAWYQQKPGQAPRLLIYGASTRATGIPARFSGSGSGTEFTLTIRSLQSEDFAVYYCQQYHNWPLTFGGGTKLEIK
cynomolgus monkey k(off) [1]: 1.67E−01 | cynomolgus monkey k(on) [1]: 1.16E+06 | mouse k(off) (mouse VTCN1 protein): 5.79E−01 | mouse k(on) (mouse VTCN1 protein): 2.16E+06 | Human K(off) (human VTCN1 protein): 1.71E−01 | Human k(on) (human VTCN1 protein): 1.33E+06

B12: 7G7_44C6: fully human VTCN1 antibody; VH SEQ ID NO: 256, VL SEQ ID NO: 260 (antibody, V domains shown)
VH: QVQLQESGPGLVKPSETLSLTCTVSGGSISHYYWSWIRQPPGKGLEWIGYIYYSGPTNYNPSLKSRVTISVDTSKNQFSLKLSSVTAADTAVYYCARTYYYGSGSFPDAFDIWGQGTMVTVSS
VL: KIVLTQSPATLSLSPGERATLSCRASQSVSSYLAWYQQTPGQAPRLLIYDASNRATGIPARFSVSGSGTDFTLTISSLEPEDFAVYYCQQRSSWPLTFGGGTKLEIK
cynomolgus monkey k(off) [1]: 1.50E−01 | cynomolgus monkey k(on) [1]: 6.61E+05 | Kd (mouse VTCN1 protein): > 500 nM | Human K(off) (human VTCN1 protein): 1.62E−01 | Human k(on) (human VTCN1 protein): 8.42E+05
